Source: the MegaScale stability set (Tsuboyama et al. 2023)

B1: EEHEE_rd4_0763 (parent)
chain: LTVHVGNVTYHFDNPEQAEEWAKRMAKKYQGQIHVKDGQFRIE

Variants of: B1
Assay: folding stability dG (cDNA display proteolysis); higher = more stable
Details: PBS, room temperature

Folding stability dG [kcal/mol] of substitutions, site by site:
V8: H 1.72 | Y 1.78 | N 1.41 | R 1.96 | G 0.756 | D 1.19 | P 0.43 | F 1.8 | K 1.74 | I 1.7
H4: G 0.951 | E 1.24 | R 1.82 | Y 1.59 | D 0.78 | A 1.55 | S 1.72 | W 1.82 | L 1.88 | P 0.289 | F 1.6 | Q 1.72
V35: E 1.21 | L 1.62 | C 2.27 | N 1.18 | Q 1.2 | M 1.61
F40: E 1.15 | S 1.03 | L 2.01 | D 1.03 | R 1 | V 1.55 | N 1.14 | H 1.02
F12: I 0.276 | A 0.274 | P -0.199 | W 0.638 | C 1.44 | Q -0.143 | L 0.531 | G -0.264 | N -0.088
T2: H 1.53 | Y 1.59 | D 1.22 | G 0.823 | E 1.48 | N 1.14 | F 1.58
Q32: I 2.03 | Y 1.51 | S 1.62 | V 2.02 | W 1.21 | M 1.49 | A 1.52 | L 1.48 | P 0.998
A18: D 0.132 | Q 0.969 | Y 1.17 | M 1.21 | I 1.01 | P -0.12
K23: W 1.56 | E 1.2 | A 1.3 | M 1.61 | T 1.32
T9: D 1.01 | A 1.58 | P 0.963 | R 1.4 | F 1.37 | N 0.836 | S 1.4
R41: E 1.59 | V 2.45 | P 1.21 | W 3.13 | G 1.3 | Y 3.29 | Q 1.66 | D 1.34
R24: K 1.63 | S 1.33 | W 1.67 | D 0.976 | V 1.58 | Y 1.87 | M 1.85 | P -0.675
L1: V 1.86 | C 2.7 | R 1.7 | S 2.03 | Y 2.92 | D 0.974 | P 1.73 | W 3.2 | H 2.13 | T 2.05 | G 1.77
I33: N 0.836 | L 1.65 | C 2.07 | H 0.852 | V 1.59 | T 0.877 | S 0.865 | W 1.34
I42: Y 1.12 | E 1.08 | H 1.12 | W 1.32 | A 1.02
V5: N 0.616 | G 0.415 | F 1.74 | T 0.582 | R 0.733 | L 1.54 | Q 0.495 | S 0.647 | D 0.649 | Y 1.41 | C 2.66 | M 1.48
H34: I 2.21 | W 1.42 | D 1.26 | M 1.69 | K 1.6
A26: I 1.06 | P 0.273 | H 0.862 | W 1.28 | Q 0.967 | M 1.28 | Y 1.15
E19: R 1.69 | V 1.69 | F 2.3 | N 1.35 | G 1.21 | Q 1.58 | I 1.87 | S 1.39
Q17: M 1.61 | P 0.493 | Y 1.53 | A 1.83 | G 1.11 | R 1.57 | L 1.71 | F 1.36
E16: L 1.68 | W 1.67 | I 1.66 | N 1.56 | H 1.85 | R 1.74 | A 1.68 | Q 1.69 | Y 1.66 | S 1.61
G38: V 0.809 | K 0.828 | F 1.1 | C 2.15 | M 0.911 | E 1.07 | S 0.873
Y10: V 0.913 | I 0.978 | W 1.85 | N 0.135 | T 0.369 | G 0.153 | R 1.18 | L 0.997 | C 1.77
G6: M 1.51 | Y 1.5 | L 1.47 | D 1.43 | A 1.41 | E 1.01 | Q 1.18 | C 2.58 | K 1.18 | W 1.5 | T 0.772 | H 1.69
P15: C 1.86 | N 1.38 | I 1.78 | S 1.69 | Y 2.17 | F 1.94 | K 1.78 | G 1.23
N7: H 1.69 | S 1.7 | G 1.71 | A 1.6 | M 1.57 | K 1.65 | R 1.76 | F 1.62
E20: W 1.92 | M 1.7 | H 1.41 | F 1.57
N14: L 1.59 | D 1.81 | Q 1.37 | Y 1.43 | I 1.49 | V 1.39 | W 1.24
K27: R 1.75 | G 1.13 | E 1.67 | A 1.83 | N 1.39 | I 1.76 | L 1.75
K36: C 2.46 | L 1.7 | F 1.79 | M 1.67 | Q 1.79 | W 1.65 | R 1.51 | S 1.69 | E 1.84
Q39: H 1.76 | W 1.24 | T 1.29 | R 1.09 | P 0.884 | A 1.71 | I 1.52 | V 1.57 | M 1.36
D37: T 0.617 | N 1.43 | H 0.769 | Q 0.814 | R 0.615 | K 0.884 | G 1.12 | M 0.773 | A 0.671
K28: H 1.53 | D 0.954 | A 1.23 | L 1.83 | C 2.59 | T 1.03 | W 1.6 | I 1.61
H11: E 1.23 | F 1.75 | S 1.43 | W 1.71 | L 1.5 | G 0.755 | N 1.25 | M 1.49 | V 1.61 | C 2.74 | Q 1.45
A22: Q 0.611 | K 0.757 | S 0.821 | N 0.383 | I 1.4 | W 1.27
E43: D 1.44 | A 1.34 | L 1.76 | P 1.15 | H 1.44 | Q 1.29 | I 2 | S 1.4
Y29: D 0.496 | A 0.762 | L 1.68 | R 0.723 | E 0.616 | G 0.732 | I 1.32 | N 0.767 | S 0.788 | Q 0.696
D13: T 1.74 | E 1.6 | M 1.49 | F 1.36 | V 1.46 | G 1.37 | H 1.37
V3: D 0.189 | N 0.243 | F 1.03 | L 1.06 | M 0.815
Q30: V 1.23 | N 2.06 | F 1.43
M25: L 1.52 | R 0.567 | E 0.535 | K 0.502 | F 1.42 | H 0.756 | Q 0.839 | G 0 | Y 1.45
W21: I 0.395 | K -0.246 | S 0.046 | R -0.245
G31: P 0.572 | R 1.07 | D 0.903 | C 2.42 | V 1.78
